From PMC6054272, “Arabidopsis SKP1-like protein13 (ASK13) positively regulates seed germination and seedling growth under abiotic stress” (Journal of Experimental Botany, 2018)

Target: the molecule itself
Test: SEC; purified recombinant His-tagged ASK13; Superose 6 column by the legend; fractions confirmed by dot blot with an anti-His antibody

B1: Recombinant His-tagged ASK13 (natural protein, Arabidopsis thaliana, UniProt Q9M1X5 1-154, looked up)
chain: MSKMVMLLSSDGESFQVEEAVAVQSQTIAHMIEDDCVANGVPIANVTGVILSKVIEYCKKHVVSDSPTEESKDELKKWDAEFMKALEQSSTLFDVMLAANYLNIKDLLDLGCQTVADMITGKKPDEIRALLGIENDFTPEEEEEIRKENQWAFE
notes: ASK13 (SKP1-like protein13), Arabidopsis thaliana, At3g60010; sub-cloned into pET23d; Found as monomer and dimer; also called recombinant ASK13; his-tagged ASK13 protein; not shown: His tag, C-terminal, kept
  stoichiometry N: 2
